US20240043517 (published 2024)

Legend:
Assay in all cases: SPR
[1] = target: T1, human GDF-15 (human, UniProt Q99988)
T1 chain: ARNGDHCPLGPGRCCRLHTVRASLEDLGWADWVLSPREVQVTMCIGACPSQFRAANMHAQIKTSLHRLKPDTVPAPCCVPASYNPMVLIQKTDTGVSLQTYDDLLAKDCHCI

[2] = target: T2, cynomolgus GDF-15 (cynomolgus monkey, UniProt G7PWZ3)
T2 chain: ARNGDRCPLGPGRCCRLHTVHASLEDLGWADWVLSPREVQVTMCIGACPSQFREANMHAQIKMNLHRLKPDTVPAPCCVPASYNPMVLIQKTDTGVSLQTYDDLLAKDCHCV

[3] = target: T3, mouse GDF-15 (mouse, UniProt Q9Z0J7)
T3 chain: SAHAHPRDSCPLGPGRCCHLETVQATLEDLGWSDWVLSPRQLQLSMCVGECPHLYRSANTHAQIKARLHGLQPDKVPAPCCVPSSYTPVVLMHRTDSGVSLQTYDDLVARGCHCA

[4] = target: T4, rat GDF-15 (rat, UniProt Q9Z0J6)
T4 chain: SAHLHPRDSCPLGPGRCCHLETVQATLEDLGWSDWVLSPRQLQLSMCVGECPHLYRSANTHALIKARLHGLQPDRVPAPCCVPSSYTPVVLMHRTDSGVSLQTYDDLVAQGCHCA

B1: CTL-002 (antibody, V domains shown)
VH: QITLKESGPTLVKPTQTLTLTCTFSGFSLSTSGMGVSWIRQPPGKGLEWLAHIYWDDDKRYNPTLKSRLTITKDPSKNQVVLTMTNMDPVDTATYYCARSSYGAMDYWGQGTLVTVSS
VL: DIVLTQSPSFLSASVGDRVTITCKASQNVGTNVAWFQQKPGKSPKALIYSASYRYSGVPDRFTGSGSGTEFTLTISSLQPEDFAAYFCQQYNNFPYTFGGGTKLEIKR
B1 showed a Kd [1] of 0.0383 nM, a Kd [2] of 0.108 nM and a Kd [3] of 9.76 nM. The Kd [4] was 0.449 nM.
